* marks the point of attachment. Palmitoyl = CCCCCCCCCCCCCCCC(=O)*; Myristoyl = CCCCCCCCCCCCCC(=O)*; Lauroyl = CCCCCCCCCCCC(=O)*; Decanoyl = CCCCCCCCCC(=O)*; Octanoyl = CCCCCCCC(=O)*

For the first experiment, the target named is T1, FZD7 receptor of HEK293-TB cells (human, UniProt O75084 33-574). Description: cell-based or functional assay.
As for Ac-LPSDDLEFACHVMY-NH2 (also: homodimer via Cys10 disulfide) [dFz7-21-W9A], the “IC50 (nM), TOPbrite reporter assay in HEK293-TB cells stimulated with mWnt3a (50 ng/mL)” value (“IC50 (nM), TOPbrite reporter assay” for short) amounted to 640 nM and the “Reduction in fold potency vs. dimer” value amounted to 58 fold.

As to Ac-LPSDDLEFWCHVAY-NH2 (also: homodimer via Cys10 disulfide) [dFz7-21-M13A], the “IC50 (nM), TOPbrite reporter assay” value came out at 913 nM and the “Reduction in fold potency vs. dimer” value was 82 fold.

Turning to Ac-LPSDDAEFWCHVMY-NH2 (also: homodimer via Cys10 disulfide) [dFz7-21-L6A], the “IC50 (nM), TOPbrite reporter assay” value worked out at 7120 nM and the “Reduction in fold potency vs. dimer” value is 642 fold.

Turning to Ac-LPSDDLEFWCHVMA-NH2 (also: homodimer via Cys10 disulfide) [dFz7-21-Y14A], the “IC50 (nM), TOPbrite reporter assay” value is 2960 nM and the “Reduction in fold potency vs. dimer” value turned out to be 267 fold.

Another experiment has as its target T1, FZD7 receptor of HEK293-TB cells. Kind of experiment: cell-based or functional assay. The source holds these as a separate data set.
For Ac-SDDLEFWCHVK(Decanoyl)Y-NH2 (also: dimer via disulfide bond at Cys8) [dFz7-21Δ2.M13K (C10)], the “Best Fit IC50 (nM), Wnt3a-mediated β-catenin signaling in HEK293-TB cells (50 ng/mL mWnt3a)” value (shortened to “Best Fit IC50 (nM)”) was 1500 nM.

For the molecule Ac-SDDLEFWCHVK(Palmitoyl)Y-NH2 (also: dimer via disulfide bond at Cys8) [dFz7-21Δ2.M13K (C16)], the “Best Fit IC50 (nM)” value amounted to 607 nM.

Turning to Ac-SDDLEFWCHVK(Lauroyl)Y-NH2 (also: dimer via disulfide bond at Cys8) [dFz7-21Δ2.M13K (C12)], the “Best Fit IC50 (nM)” value came out at 553 nM.

Consider Ac-SDDLEFWCHVK(Myristoyl)Y-NH2 (also: dimer via disulfide bond at Cys8) [dFz7-21Δ2.M13K (C14)], for which the “Best Fit IC50 (nM)” value came out at 607 nM.

For the molecule Ac-SDDLEFWCHVK(Octanoyl)Y-NH2 (also: dimer via disulfide bond at Cys8) [dFz7-21Δ2.M13K (C8)], the “Best Fit IC50 (nM)” value stood at 2130 nM.
